Assay results from patent US7067302B2, “DNA and amino acid sequence of a tyrosine ammonia lyase enzyme from the bacterium Rhodobacter sphaeroides” (E. I. du Pont de Nemours and Company, priority 2002, dated 2006).

Legend:
[1] = Kinetic analysis of purified RsTAL with phenylalanine (Lineweaver-Burk); format: biochemical; conditions: substrate phenylalanine
Experimental: (§1) A 500 mL culture of the E. coli BL21(DE3)RP(pKK233.RsTAL2) strain was grown in LB Broth, containing […] ampicillin to mid log phase, induced with 1 mM IPTG, and incubated overnight (18 h) in a 37° C. shaker. The cells were centrifuged and resuspended in 10 mL of Buffer A (50 mM Tris-HCl, pH 8.5 buffer, 5 mM DTT (dithiothreitol), and 1 mM tyrosine) containing one and a half EDTA-free protease inhibitor tablets (Roche Applied Science, Indianapolis, Ind.). The cells were then passed through a French Press Cell twice, and centrifuged at 18000 rpm for 20 min. Ammonium sulfate at 30% saturation was added to the […] supernatant and the resulting precipitate was removed by centrifugation. The supernatant from this first fractionation was then treated with ammonium sulfate at 50% saturation. […] The eluted fractions were analyzed for TAL activity, and the fractions containing TAL activity were pooled, precipitated again using ammonium sulfate at 50% saturation, and desalted using a 3 mL desalting column (Bio-Rad Laboratories, Hercules, Calif.). […] TAL activity was detected in the flow-through fractions. […]
The kinetic parameters of the RsTAL enzyme were characterized using'the TAL enzyme assay described above. The initial rates of the enzyme reaction were measured at tyrosine concentrations of 0.01 to 10 mM in 50 mM Tris-HCl, pH 8.5 buffer. […]

[2] = Kinetic analysis of purified RsTAL with tyrosine (Lineweaver-Burk); format: biochemical
Experimental: Crude cell extracts were generated by sonication of a suspension of the transformed cells, followed by centrifugation. The TAL enzyme activity of the crude cell extracts was determined by an enzyme assay using 40 μg of crude cell extract in 10 mM Tris-HCl, pH 8.5 buffer containing 1 mM tyrosine. The OD of the pHCA produced was followed at 315 nm with an extinction coefficient of […]. The results of the TAL enzyme assay are given in Table 5 in terms of activity units. A unit (U) is defined as follows: one unit of activity deaminated 1 μmol of tyrosine to pHCA per min.
as §1
The kinetic parameters of the RsTAL enzyme were characterized using'the TAL enzyme assay described above. The initial rates of the enzyme reaction were measured at tyrosine concentrations of 0.01 to 10 mM in 50 mM Tris-HCl, pH 8.5 buffer. The values of kcat and Km of the RsTAL enzyme for both tyrosine and phenylalanine were determined using Lineweaver-Burk analysis and the results are given in Table 6.

[3] = literature values; cited from earlier work
[4] = substrate tyrosine, 50 mM Tris-HCl, pH 8.5

B1: RsTAL: the TAL enzyme from Rhodobacter sphaeroides, 526 amino acids, SEQ ID NO:3 (protein)
chain: VKPMLAMSPPKPAVELDRHIDLDQAHAVASGGARIVLAPPARDRCRASEARLGAVIREARHVYGLTTGFGPLANRLISGENVRTLQANLVHHLASGVGPVLDWTTARAMVLARLVSIAQGASGASEGTIARLIDLLNSELAPAVPSRGTVGASGDLTPLAHMVLCLQGRGDFLDRDGTRLDGAEGLRRGRLQPLDLSHRDALALVNGTSAMTGIALVNAHACRHLGNWAVALTALLAECLRGRTEAWAAALSDLRPHPGQKDAAARLRARVDGSARVVRHVIAERRLDAGDIGTEPEAGQDAYSLRCAPQVLGAGFDTLAWHDRVLTIELNAVTDNPVFPPDGSVPALHGGNFMGQHVALTSDALATAVTVLAGLAERQIARLTDERLNRGLPPFLHRGPAGLNSGFMGAQVTATALLAEMRATGPASIHSISTNAANQDVVSLGTIAARLCREKIDRWAEILAILALCLAQAAELRCGSGLDGVSPAGKKLVQALREQFPPLETDRPLGQEIAALATHLLQQSPV
modifications: R. sphaeroides
- Km [1]: 560 µM
- kcat [1]: 0.01 s⁻¹
- Km [2, 4]: 60 µM
- kcat [2, 4]: 0.02 s⁻¹
- TAL/PAL Ratio ([2]; tyrosine versus phenylalanine as substrate): 19

B2: TAL enzyme from Trichosporon cutaneum: inducible TAL enzyme isolated from the yeast Trichosporon cutaneum (protein)
chain: MFIETNVAKPASTKAMNAGSAKAAPVEPFATYAHSQATKTVSIDGHTMKVGDVVAVARHGAKVELAASVAGPVRASVDFKESKKHTSIYGVTTGFGGSADTRTSDTEALQISLLEHQLCGFLPTDATYEGMLLAAMPIPIVRGAMAVRVNSCVRGHSGVRLEVLQSFADFINRGLVPCVPLRGTISASGDLSPLSYIAGAICGHPDVKVFDTAASPPTVLTSPEAIAKYGLKTVKLASKEGLGLVNGTAVSAAAGALALYDAECLAIMSQTNTVLTVEALDGHVGSFAPFIQEIRPHAGQIEAARNIRHMLGGSKLAVHEESELLADQDAGILRQDRYALRTSAQWIGPQLEALGLARQQIETELNSTTDNPLIDVEGGMFHHGGNFQAMAVTSAMDSARIVLQNLGKLSFAQVTELINCEMNHGLPSNLAGSEPSTNYHCKGLDIHCGAYCAELGFLANPMSNHVQSTEMHNQSVNSMAFASARRTMEANEVLSLLLGSQMYCATQALDLRVMEVKFKMAIVKLLNETLTKHFAAFLTPEQLAKLNTHAAITLYKRLNQTPSWDSAPRFEDAAKHLVGVIMDALMVNDDITDLTNLPKWKKEFAKEAGNLYRSILVATTADGRNDLEPAEYLGQTRAVYEAVRSELGVKVRRGDVAEGKSGKSIGSSVAKIVEAMRDGRLMGAVGKMF
modifications: T. cutaneum
- PAL/TAL activity ratio [3]: 0.73

B3: wild-type PAL/TAL enzyme from the yeast Rhodosporidium: wild-type PAL/TAL enzyme from the yeast Rhodosporidium (protein, UniProt P11544 1-716, looked up)
Phenylalanine/tyrosine …: MAPSLDSISHSFANGVASAKQAVNGASTNLAVAGSHLPTTQVTQVDIVEKMLAAPTDSTLELDGYSLNLGDVVSAARKGRPVRVKDSDEIRSKIDKSVEFLRSQLSMSVYGVTTGFGGSADTRTEDAISLQKALLEHQLCGVLPSSFDSFRLGRGLENSLPLEVVRGAMTIRVNSLTRGHSAVRLVVLEALTNFLNHGITPIVPLRGTISASGDLSPLSYIAAAISGHPDSKVHVVHEGKEKILYAREAMALFNLEPVVLGPKEGLGLVNGTAVSASMATLALHDAHMLSLLSQSLTAMTVEAMVGHAGSFHPFLHDVTRPHPTQIEVAGNIRKLLEGSRFAVHHEEEVKVKDDEGILRQDRYPLRTSPQWLGPLVSDLIHAHAVLTIEAGQSTTDNPLIDVENKTSHHGGNFQAAAVANTMEKTRLGLAQIGKLNFTQLTEMLNAGMNRGLPSCLAAEDPSLSYHCKGLDIAAAAYTSELGHLANPVTTHVQPAEMANQAVNSLALISARRTTESNDVLSLLLATHLYCVLQAIDLRAIEFEFKKQFGPAIVSLIDQHFGSAMTGSNLRDELVEKVNKTLAKRLEQTNSYDLVPRWHDAFSFAAGTVVEVLSSTSLSLAAVNAWKVAAAESAISLTRQVRETFWSAASTSSPALSYLSPRTQILYAFVREELGVKARRGDVFLGKQEVTIGSNVSKIYEAIKSGRINNVLLKMLA
- TAL/PAL ratio (TAL catalytic activity to PAL catalytic activity) [3]: 0.58
